In FireProtDB:

B1: Phosphocarrier protein HPr, P42013 (parent)
chain: MAEKTFKVVSDSGIHARPATILVQTASKFNSEIQLEYNGKTVNLKSIMGVMSLGIPKGATIKITAEGADAAEAMAALTDTLAKEGLAE
B2: Guanyl-specific ribonuclease T1, P00651 (parent)
chain: MMYSKLLTLTTLLLPTALALPSLVERACDYTCGSNCYSSSDVSTAQAAGYQLHEDGETVGSNSYPHKYNNYEGFDFSVSSPYYEWPILSSGDVYSGGSPGADRVVFNENNQLAGVITHTGASGNNFVECT

Variants of: B1
Conditions: Geobacillus stearothermophilus; pH 7; 25 °C; Urea; CD; sodium phosphate 10 mM; reversible: yes; structure 1Y4Y; whole UniProt chain shown

**Q.** Which results are given for F29W?
**A.** ddG of mutation (higher = less stable): 0.86 kcal/mol; denaturant m value: 1.06 kcal/mol/M; unfolding free energy: 7.37 kcal/mol

Same assay, conditions: Geobacillus stearothermophilus; pH 7; Thermal; CD; sodium phosphate 10 mM; NaCl 750 mM; reversible: yes; structure 1Y4Y; whole UniProt chain shown

**Q.** For F29W, which Tm is on record?
**A.** 85.3 °C

Same assay, conditions: Geobacillus stearothermophilus; pH 7; Thermal; CD; sodium phosphate 10 mM; reversible: yes; structure 1Y4Y; whole UniProt chain shown

**Q.** What does the source list for F29W?
**A.** Tm: 83.7 °C; change of melting temperature, mutant - wild type (higher = more stable): -4.4 °C

Variants of: B2
Conditions: Aspergillus oryzae (strain ATCC 42149 / RIB 40); pH 7; Thermal; Absorbance; Sodium cacodylate 10 mM; reversible: yes; structure 1RN1; whole UniProt chain shown

**Q.** For Y71W W85Y, which Tm is on record?
**A.** 53.1 °C

**Q.** And the “change of melting temperature, mutant - wild type (higher = more stable)” value (“change of melting temperature, mutant” for short)?
**A.** -4.5 °C

**Q.** With Y71W as the variant, how does the Tm read?
**A.** 56 °C

**Q.** What about the “change of melting temperature, mutant” value of the same variant?
**A.** -1.6 °C

Same assay, conditions: Aspergillus oryzae (strain ATCC 42149 / RIB 40); pH 7; 48.6 °C; Thermal; Fluorescence; MOPS 30 mM; structure 1RN1; whole UniProt chain shown

**Q.** With Q51K E84A as the variant, how does the “ddG of mutation (higher = less stable)” value read?
**A.** -0.06 kcal/mol

**Q.** For E84A, which “ddG of mutation (higher = less stable)” value is on record?
**A.** 0.78 kcal/mol

**Q.** Which “ddG of mutation (higher = less stable)” value does the source give for Q51K here?
**A.** -0.93 kcal/mol

Same assay, conditions: Aspergillus oryzae (strain ATCC 42149 / RIB 40); pH 7; Thermal; Fluorescence; MOPS 30 mM; structure 1RN1; whole UniProt chain shown

**Q.** For Q51K E84A, which Tm is on record?
**A.** 48.8 °C

**Q.** What about the “change of melting temperature, mutant” value of the same variant?
**A.** -0.5 °C

**Q.** What about the “unfolding enthalpy (van 't Hoff)” value of the same variant?
**A.** 93 kcal/mol

**Q.** Which results are given for Q51K?
**A.** Tm: 51.7 °C; change of melting temperature, mutant - wild type (higher = more stable): 3.4 °C; unfolding enthalpy (van 't Hoff): 107 kcal/mol

Same assay, conditions: Aspergillus oryzae (strain ATCC 42149 / RIB 40); pH 7.4; 25 °C; Urea; Fluorescence; Sodium acetate 50 mM; reversible: yes; structure 1RN1; whole UniProt chain shown

**Q.** What does the source list for A47G G49A?
**A.** denaturant m value: 1.37 kcal/mol/M; denaturant midpoint (higher = more stable): 4.7 M; unfolding free energy: 6 kcal/mol

Same assay, conditions: Aspergillus oryzae (strain ATCC 42149 / RIB 40); pH 7; 25 °C; Urea; Fluorescence; MOPS 30 mM; structure 1RN1; whole UniProt chain shown

**Q.** What does the source list for E84A?
**A.** ddG of mutation (higher = less stable): 0.9 kcal/mol; denaturant m value: 1.2 kcal/mol/M; denaturant midpoint (higher = more stable): 3.92 M; unfolding free energy: 4.72 kcal/mol

**Q.** Which “ddG of mutation (higher = less stable)” value does the source give for Q51K here?
**A.** -0.77 kcal/mol

**Q.** What about the denaturant m value of the same variant?
**A.** 1.21 kcal/mol/M

**Q.** And the “denaturant midpoint (higher = more stable)” value?
**A.** 5.3 M

**Q.** And the unfolding free energy?
**A.** 6.39 kcal/mol

Same assay, conditions: Aspergillus oryzae (strain ATCC 42149 / RIB 40); pH 5; 10 °C; GdnHCl; CD; Na acetate 0.1 M; structure 1RN1; whole UniProt chain shown

**Q.** Which denaturant m value does the source give for S80G P81N here?
**A.** 2.8 kcal/mol/M

**Q.** What about the unfolding free energy of the same variant?
**A.** 11.2 kcal/mol

Same assay, conditions: Aspergillus oryzae (strain ATCC 42149 / RIB 40); pH 8; 15 °C; Urea; Absorbance; Tris-HCl 0.1 M; NaCl 2.8 M; structure 1RN1; whole UniProt chain shown

**Q.** Which unfolding free energy does the source give for S80G P81N here?
**A.** 5.98 kcal/mol

Same assay, conditions: Aspergillus oryzae (strain ATCC 42149 / RIB 40); pH 8; 15 °C; Urea; CD; Tris-HCl 0.1 M; NaCl 2.5 M; structure 1RN1; whole UniProt chain shown

**Q.** Which unfolding free energy does the source give for S80G P81N here?
**A.** 2.44 kcal/mol
